Paper PMC10552185, “Impaired cAMP processivity by phosphodiesterase-protein kinase A complexes in acrodysostosis” (Frontiers in Molecular Biosciences, 2023)
Changes are numbered by the printed parent chain. Names may count otherwise.

Biological target: T1, cAMP-dependent protein kinase (PKA) type I regulatory subunit isoform α, full-length wild type (UniProt P00514 1-380)
T1 construct: PKA type I regulatory subunit α (RIα), full length, UniProtKB P00514 used for the HDXMS peptide search; Cloned in pRSETA; for FP loaded with 8-fl-cAMP or 2'-fl-cAMP; also called RIα; WT RIα
T1 sequence (P00514 whole entry, canonical isoform): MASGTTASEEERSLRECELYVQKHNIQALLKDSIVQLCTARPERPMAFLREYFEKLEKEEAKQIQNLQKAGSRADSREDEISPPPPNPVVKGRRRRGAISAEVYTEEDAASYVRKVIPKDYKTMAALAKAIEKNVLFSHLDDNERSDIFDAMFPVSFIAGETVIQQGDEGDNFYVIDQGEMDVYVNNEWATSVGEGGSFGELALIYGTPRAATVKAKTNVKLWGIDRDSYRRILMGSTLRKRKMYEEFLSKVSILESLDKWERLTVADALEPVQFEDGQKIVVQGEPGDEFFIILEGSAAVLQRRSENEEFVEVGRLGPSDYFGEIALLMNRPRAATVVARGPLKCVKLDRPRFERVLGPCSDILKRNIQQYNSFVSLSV
Assay: fluorescence polarisation; about 1 uM RIα preloaded with 8-fl-cAMP or 2'-fl-cAMP (excess ligand removed by SEC), about 2 uM PDE8 added; polarisation followed over 120 min; 96-well plates; excess cAMP (25 or 100 uM) added at 20 min in some runs
Conditions: both partners purified

B1: catalytic domain of wild-type PDE8A1 (472-829) (domain or fragment, UniProt O60658-1 472-829, looked up)
chain: SSNIITPISLDDVPPRIARAMENEEYWDFDIFELEAATHNRPLIYLGLKMFARFGICEFLHCSESTLRSWLQIIEANYHSSNPYHNSTHSADVLHATAYFLSKERIKETLDPIDEVAALIAATIHDVDHPGRTNSFLCNAGSELAILYNDTAVLESHHAALAFQLTTGDDKCNIFKNMERNDYRTLRQGIIDMVLATEMTKHFEHVNKFVNSINKPLATLEENGETDKNQEVINTMLRTPENRTLIKRMLIKCADVSNPCRPLQYCIEWAARISEEYFSQTDEEKQQGLPVVMPVFDRNTCSIPKSQISFIDYFITDMFDAWDAFVDLPDLMQHLDNNFKYWKGLDEMKLRNLRPPPE
notes: PDE8A catalytic domain, residues 472-829 of PDE8A1, UniProtKB O60658 used for the HDXMS peptide search; Cloned in pET-Duet1; also called PDE8 WT; WT PDE8
binding result: binds

B2: PDE8A catalytic domain (472-829) T690P (domain or fragment, UniProt O60658 472-829, looked up)
chain: B1 chain with T219P
notes: PDE8A catalytic domain, residues 472-829 of PDE8A1, UniProtKB O60658, with T690P (made as the equivalent of the acrodysostosis mutation PDE4D T594P); Cloned in pET-Duet1; also called PDE8 T690P; PDE8c T690P
binding result: binds
